We go through two molecules from patent US20140335016A1 (PROCLARA BIOSCIENCES, published 2014).

In experiment [1] the target is T1, amyloid-β 1-42 fibers (fAβ42) (human, UniProt P05067 672-713).
T1 construct: domain: amyloid-β 1-42; Aggregated fibrillar state; also called Aβ fibrils; Aβ fibers
The experiment in a line: SPR, fAβ immobilized on the chip, 10^14 phage/mL. On the technique in general: SPR reads the build-up and loss of mass on a sensor chip optically.

Experiment [2] concerns the target T1, amyloid-β 1-42 fibers (fAβ42). The experiment in a line: cell-based or functional assay.

T1 sequence (P05067 672-713 limits assumed): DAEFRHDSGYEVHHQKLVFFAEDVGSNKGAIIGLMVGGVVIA

B1: M13 filamentous bacteriophage (construct not stated) (other)
chain: AETVESCLAKPHTENSFTNVWKDDKTLDRYANYEGCLWNATGVVVCTGDETQCYGTWVPIGLAIPENEGGGSEGGGSEGGGSEGGGTKPPEYGDTPIPGYTYINPLDGTYPPGTEQNPANPNPSLEESQPLNTFMFQNNRFRNRQGALTVYTGTVTQGTDPVKTYYQYTPVSSKAMYDAYWNGKFRDCAFHSGFNEDPFVCEYQGQSSDLPQPPVNAGGGSGGGSGGGSEGGGSEGGGSEGGGSEGGGSGGGSGSGDFDYEKMANANKGAMTENADENALQSDAKGKLDSVATDYGAAIDGFIGDVSGLANGNGATGDFAGSNSQMAQVGDGDNSPLMNNFRQYLPSLPQSVECRPFVFSAGKPYEFSIDCDKINLFRGVFAFLLYVATFMYVFSTFANILRNKES
notes: Whole phage particle; also called M13 phage; wildtype M13
As a reminder, the Kd is the free concentration of one partner at which half of the binding sites on the other are occupied at equilibrium, for simple one-to-one binding. Read a low Kd as tighter binding. The molecule B1 showed a dissociation constant (Kd) in experiment [1] of around 4 nM.

B2: recombinant soluble g3p fragment comprising the N1 and N2 domains, rs-g3p(N1N2), Construct 3 (other)
chain: MAETVESCLAKSHTENSFTNVWKDDKTLDRYANYEGCLWNATGVVVCTGDETQCYGTWVPIGLAIPENEGGGSEGGGSEGGGSEGGGTKPPEYGDTPIPGYTYINPLDGTYPPGTEQNPANPNPSLEESQPLNTFMFQNNRFRNRQGALTVYTGTVTQGTDPVKTYYQYTPVSSKAMYDAYWNGKFRDCAFHSGFNEDLFVCEYQGQSSDLPQPPVNAPSGHHHHHH
Consider B2, for which the “ThT fluorescence assay, IC50” value in experiment [2] is around 20 nM.
